Consider four molecules from doi:10.1101/805184 (bioRxiv, 2019).

B1: Snf12 (natural protein)
chain: MSKVMKPSNGKGSRKSSKAATPDTKNFFHAKKKDPVNQDKANNASQITPTVPHSHPSDMVIPDHLAELIPELYSFQQLVDSEKRLDHFIHLRNLHMKRMVAQWERSKLSQEFLYPHLNFPNVKFLRIFISNVSENQPWQMDTNNEADLMALENATWTMRIEGRLLDNVQANDPAREKFSSFIESIVVDFKNKENDNVPSTKFNAAPEENATEGPSDKKLNLNLPLQFSLPNGDNSTTTNTDQNNATMGEETAKKDMSSTTPKLESVKWQYDPNNPVDFDGLDIKRVGSENVECTISILRKSSPEEPFMSYSPQLTAIIGLKSGTSHDAIFSIYKYIHLNELLTNDESAFENLMGNRNNHNSNTSTSKMLDAASSQVSIVKLDTQLITLLPSSLKESSPDTMKLTDLLSLINSTHLLPLQPIEIDYTVRVDKASTYGELVLDIEVPDVNALKFNNTQRESQIGAAELNENARELEQIKPKIALQDKEITSVLSNLHESNKRYRFFKKISEDPVKALNECIASTSNALKVLSGDEGYNEDMVRRANFYKENEAMLRENIEVILSNGRM
B3: Snf5 (natural protein)
chain: MNNQPQGTNSVPNSIGNIFSNIGTPSFNMAQIPQQLYQSLTPQQLQMIQQRHQQLLRSRLQQQQQQQQQTSPPPQTHQSPPPPPQQSQPIANQSATSTPPPPPAPHNLHPQIGQVPLAPAPINLPPQIAQLPLATQQQVLNKLRQQAIAKNNPQVVNAITVAQQQVQRQIEQQKGQQTAQTQLEQQRQLLVQQQQQQQLRNQIQRQQQQQFRHHVQIQQQQQKQQQQQQQHQQQQQQQQQQQQQQQQQQQQQQQQQQQQQQQQQQQQQGQIPQSQQVPQVRSMSGQPPTNVQPTIGQLPQLPKLNLPKYQTIQYDPPETKLPYPTYWSDKKADTDTLLYEQIIQRDKINKYSLIRETNGYDPFSIYGFSNKEYISRLWHTLKYYQDLKNTRMKSITSTSQKIPSASIWGNGYSGYGNGITNTTTRVIPQVEVGNRKHYLEDKLKVYKQAMNETSEQLVPIRLEFDQDRDRFFLRDTLLWNKNDKLIKIEDFVDDMLRDYRFEDATREQHIDTICQSIQEQIQEFQGNPYIELNQDRLGGDDLRIRIKLDIVVGQNQLIDQFEWDISNSDNCPEEFAESMCQELELPGEFVTAIAHSIREQVHMYHKSLALLGYNFDGSAIEDDDIRSRMLPTITLDDVYRPAAESKIFTPNLLQISAAELERLDKDKDRDTRRKRRQGRSNRRGMLALSGTSASNTSMNGVHNTVAAGNASSLPPGEILLPDIADIPRTFRTPVPSTLMPGGVDVGPSVESYELRNTTTYKSRPDRPKPVSPPCYIIDHIPGHSLLLSIKLPGKVNTKEEFAAAPNDTSSGTNAMLPSPESLKTKLNSNIRAGVTIPSIPNPIANHTVTNSPNPTLQPVIPGGAASKSVPTPSLPIAPPVAPHDSEATLLTNSNNGSSNNNTQNT

Holding throughout (assay): cryo-EM structure
In assay [1] the target is T1, Swi3 (S. cerevisiae, UniProt P32591 1-825).
T1 sequence: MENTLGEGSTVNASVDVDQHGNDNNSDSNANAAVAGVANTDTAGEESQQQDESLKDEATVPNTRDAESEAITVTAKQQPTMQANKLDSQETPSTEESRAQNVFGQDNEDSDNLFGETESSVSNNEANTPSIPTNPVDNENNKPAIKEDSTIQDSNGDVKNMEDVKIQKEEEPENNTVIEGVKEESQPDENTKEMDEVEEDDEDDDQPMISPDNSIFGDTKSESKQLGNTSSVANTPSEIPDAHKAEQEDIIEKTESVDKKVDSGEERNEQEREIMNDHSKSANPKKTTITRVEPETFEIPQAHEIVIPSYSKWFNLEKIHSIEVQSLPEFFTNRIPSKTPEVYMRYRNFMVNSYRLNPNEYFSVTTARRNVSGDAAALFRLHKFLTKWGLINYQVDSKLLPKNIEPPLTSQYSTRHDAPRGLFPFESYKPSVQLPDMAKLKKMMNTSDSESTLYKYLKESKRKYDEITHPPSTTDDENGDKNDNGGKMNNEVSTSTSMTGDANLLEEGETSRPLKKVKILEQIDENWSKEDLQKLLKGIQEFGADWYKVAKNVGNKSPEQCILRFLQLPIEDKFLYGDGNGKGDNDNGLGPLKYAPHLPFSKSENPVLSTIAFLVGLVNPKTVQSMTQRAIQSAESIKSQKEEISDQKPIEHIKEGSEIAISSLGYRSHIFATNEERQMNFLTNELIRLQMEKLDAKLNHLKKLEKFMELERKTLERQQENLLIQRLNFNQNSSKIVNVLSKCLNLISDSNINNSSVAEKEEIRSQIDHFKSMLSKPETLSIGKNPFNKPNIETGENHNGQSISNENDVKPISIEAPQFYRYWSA

Assay [2] concerns the target T2, Swi1 (S. cerevisiae, UniProt P09547 1-1314).
T2 sequence: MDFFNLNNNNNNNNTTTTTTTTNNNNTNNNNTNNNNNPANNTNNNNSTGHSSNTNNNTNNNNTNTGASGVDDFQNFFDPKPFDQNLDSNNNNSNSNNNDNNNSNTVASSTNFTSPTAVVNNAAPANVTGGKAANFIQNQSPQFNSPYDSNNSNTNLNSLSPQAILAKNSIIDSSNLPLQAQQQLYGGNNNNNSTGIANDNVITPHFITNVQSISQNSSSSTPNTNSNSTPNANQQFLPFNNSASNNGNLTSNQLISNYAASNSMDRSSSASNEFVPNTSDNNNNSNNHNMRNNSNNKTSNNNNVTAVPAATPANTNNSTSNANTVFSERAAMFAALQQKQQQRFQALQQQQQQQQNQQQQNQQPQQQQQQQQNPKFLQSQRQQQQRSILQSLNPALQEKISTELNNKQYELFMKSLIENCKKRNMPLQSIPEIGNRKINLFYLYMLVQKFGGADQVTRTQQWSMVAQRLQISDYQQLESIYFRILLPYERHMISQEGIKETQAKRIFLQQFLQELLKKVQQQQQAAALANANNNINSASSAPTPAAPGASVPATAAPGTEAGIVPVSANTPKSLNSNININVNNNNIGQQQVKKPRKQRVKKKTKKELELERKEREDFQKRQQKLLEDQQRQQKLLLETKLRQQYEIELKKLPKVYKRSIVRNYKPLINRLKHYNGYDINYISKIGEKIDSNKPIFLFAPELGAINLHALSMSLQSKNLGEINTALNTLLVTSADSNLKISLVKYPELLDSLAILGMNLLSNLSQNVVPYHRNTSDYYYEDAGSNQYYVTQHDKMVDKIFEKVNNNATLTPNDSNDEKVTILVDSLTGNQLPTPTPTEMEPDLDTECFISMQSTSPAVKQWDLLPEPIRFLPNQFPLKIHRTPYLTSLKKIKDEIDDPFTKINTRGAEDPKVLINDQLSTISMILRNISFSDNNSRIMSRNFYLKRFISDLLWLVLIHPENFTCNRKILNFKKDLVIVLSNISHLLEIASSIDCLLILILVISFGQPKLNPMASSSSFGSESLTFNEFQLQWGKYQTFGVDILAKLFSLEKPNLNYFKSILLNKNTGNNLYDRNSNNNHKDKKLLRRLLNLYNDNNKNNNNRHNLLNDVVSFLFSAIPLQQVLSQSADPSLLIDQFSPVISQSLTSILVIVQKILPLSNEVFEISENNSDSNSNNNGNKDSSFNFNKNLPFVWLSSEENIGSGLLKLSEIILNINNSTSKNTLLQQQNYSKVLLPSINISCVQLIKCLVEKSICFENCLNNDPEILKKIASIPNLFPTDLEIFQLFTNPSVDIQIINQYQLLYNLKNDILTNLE

The target in assay [3] is B1.
Assay [4] has as its target B3.

B1: the binding result in assay [1] and in assay [2] was “binds” each time.

B2: Snf6 (natural protein)
chain: MGVIKKKRSHHGKASRQQYYSGVQVGGVGSMGAINNNIPSLTSFAEENNYQYGYSGSSAGMNGRSLTYAQQQLNKQRQDFERVRLRPEQLSNIIHDESDTISFRSNLLKNFISSNDAFNMLSLTTVPCDRIEKSRLFSEKTIRYLMQKQHEMKTQAAELQEKPLTPLKYTKLIAAAEDGSRSTKDMIDAVFEQDSHLRYQPDGVVVHRDDPALVGKLRGDLREAPADYWTHAYRDVLAQYHEAKERIRQKEVTAGEAQDEASLQQQQQQDLQQQQQVVTTVASQSPHATATEKEPVPAVVDDPLENMFGDYSNEPFNTNFDDEFGDLDAVFF
Take B2: the binding result in assay [1], in assay [3] and in assay [2] was “binds” throughout.
For the molecule B3, the binding result in assay [2] is “binds”.

B4: Swp82 (natural protein)
chain: MLGEDEGNTVLEKGNNPSVKQGEVGAVFIVPKILIREHERVILKQILQILDQDELVQPPLDKFPYKKLELPKYIDELKTRDATNTSYKMIQLDAYGEKKVGSNGELFGGRHYLFNTFTFTAHMGVLLVLLQDVIKVLYQSNATHDEDEFIVQHDQILVMETSEEQTKFLAKNGVIPEESKGSFKYITARSAFVEFGASVIAGGQRIVDDYWESLAKKQNLSSHQRVFKLSTNLISKISLLRPSFQNNRISNANEISANTNNTCTISTSKFESQYPIVTEQPSAEIREAYIENFAKGEHISAIVPGQSISGTLELSAQFRVPRYHSKNSFQQALQMKAMDIPIGRHEELLAQYESQAPDGSASISLPNHIPSVNPSNKPIKRMLSSILDINVSSSKNKKSEENEMIKPMNKGQHKNNTSLNINGWKFESLPLKSAENSGKQQYYRGLPLYEKNTLLERLKQLTPNEIKELEHLHDAVFVNTGLQNVRKVRTKKWKKYWQYKAGIPIGLKRSQLDEFKNKYLKDVLAQTSVTTNFNEITNTDETITTKRVPNPNFLGNCNIKDFKPPYIYSHVNKVPQNVAGDKTAVKLDTEVKNTNANPVVATDPVAAKPDNLANFSNEVAMNN
B4: the binding result in assay [4] and in assay [1] was “binds” throughout.
